Test results published in patent US12060424 (AMUNIX PHARMACEUTICALS, dated 2024).

T1: human EpCAM expressed on cells (CHO cells stably transfected with human EpCAM); EpCAM-positive human tumor … (human, UniProt P16422 24-314)
T1 sequence (looked up): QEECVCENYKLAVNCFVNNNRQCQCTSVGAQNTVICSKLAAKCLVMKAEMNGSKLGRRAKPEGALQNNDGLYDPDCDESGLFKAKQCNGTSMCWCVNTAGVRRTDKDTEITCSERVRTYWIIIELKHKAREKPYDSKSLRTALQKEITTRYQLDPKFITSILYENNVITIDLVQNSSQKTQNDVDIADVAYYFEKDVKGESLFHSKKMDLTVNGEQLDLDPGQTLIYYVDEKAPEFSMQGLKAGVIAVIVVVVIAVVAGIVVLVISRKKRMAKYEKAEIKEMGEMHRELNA


Legend:
[1] = biological target: recombinant human CD3 epsilon & delta (rhCD3ε & δ), Creative BioMart cat #CD3E&CD3D-219H (human) (UniProt P07766); assay: sandwich ELISA: rhCD3ε & δ coated, biotinylated anti-XTEN antibody detection
[2] = biological target: T1, human EpCAM expressed on cells (CHO …); assay: cell-based or functional assay

Sequence of recombinant human CD3 epsilon & delta (rhCD3ε & δ), Creative BioMart cat #CD3E&CD3D-219H (human) (P07766 23-126, stated change not applied, chain 1 of 2): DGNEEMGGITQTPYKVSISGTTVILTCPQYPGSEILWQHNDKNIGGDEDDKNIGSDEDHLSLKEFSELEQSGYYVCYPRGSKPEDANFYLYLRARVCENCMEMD
Sequence of recombinant human CD3 epsilon & delta (rhCD3ε & δ), Creative BioMart cat #CD3E&CD3D-219H (human) (P04234 22-105, stated change not applied, chain 2 of 2, further chain): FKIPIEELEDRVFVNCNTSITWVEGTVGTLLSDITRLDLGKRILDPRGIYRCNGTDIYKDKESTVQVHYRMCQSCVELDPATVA

Row | Binder | EC50 [1] [µg/mL] | EC50 (pM), caspase 3/7 cytotoxicity, PBMC with HCT-116 cells 10:1 [2] [pM] | EC50 (pM), caspase 3/7 cytotoxicity, PBMC with HPAF-II cells 10:1 [2] [pM] | EC50 (pM), caspase 3/7 cytotoxicity, PBMC with MDA-MB-231 cells 10:1 [2] [pM]
1 | AC1684 protease-untreated anti-EpCAM×anti-CD3 ProTIA (bispecific antibody) DIQMTQSPSSLSASVGDRVTITCRSTKSLLHSNGITYLYWYQQKPGKAPKLLIYQMSNLASGVPSRFSSSGSGTDFTLTISSLQPEDFATYYCAQNLEIPRTFGQGTKVEIKGATPPETGAETESPGETTGGSAESEPPGEGQVQLVQSGPGLVQPGGSVRISCAASGYTFTNYGMNWVKQAPGKGLEWMGWINTYTGESTYADSFKGRFTFSLDTSASAAYLQINSLRAEDTAVYYCARFAIKGDYWGQGTLLTVSSGGGGSDIQMTQSPSSLSASVGDRVTITCRASQDIRNYLNWYQQKPGKAPKLLIYYTSRLESGVPSRFSGSGSGTDYTLTISSLQPEDFATYYCQQGNTLPWTFGQGTKVEIKGATPPETGAETESPGETTGGSAESEPPGEGEVQLVESGGGLVQPGGSLRLSCAASGYSFTGYTMNWVRQAPGKGLEWVALINPYKGVSTYNQKFKDRFTISVDKSKNTAYLQMNSLRAEDTAVYYCARSGYYGDSDWYFDVWGQGTLVTVSSGTAEAASASGESGRAANTEPPELGAGPGSPAGSPTSTEEGTSESATPESGPGTSTEPSEGSAPGSPAGSPTSTEEGTSTEPSEGSAPGTSTEPSEGSAPGTSESATPESGPGSEPATSGSETPGSEPATSGSETPGSPAGSPTSTEEGTSESATPESGPGTSTEPSEGSAPGTSTEPSEGSAPGSPAGSPTSTEEGTSTEPSEGSAPGTSTEPSEGSAPGTSESATPESGPGTSTEPSEGSAPGTSESATPESGPGSEPATSGSETPGTSTEPSEGSAPGTSTEPSEGSAPGTSESATPESGPGTSESATPESGPGSPAGSPTSTEEGTSESATPESGPGSEPATSGSETPGTSESATPESGPGTSTEPSEGSAPGTSTEPSEGSAPGTSTEPSEGSAPGTSTEPSEGSAPGTSTEPSEGSAPGTSTEPSEGSAPGSPAGSPTSTEEGTSTEPSEGSAPGTSESATPESGPGSEPATSGSETPGTSESATPESGPGSEPATSGSETPGTSESATPESGPGTSTEPSEGSAPGTSESATPESGPGSPAGSPTSTEEGSPAGSPTSTEEGSPAGSPTSTEEGTSESATPESGPGTSTEPSEGSAPGTSESATPESGPGSEPATSGSETPGTSESATPESGPGSEPATSGSETPGTSESATPESGPGTSTEPSEGSAPGSPAGSPTSTEEGTSESATPESGPGSEPATSGSETPGTSESATPESGPGSPAGSPTSTEEGSPAGSPTSTEEGTSTEPSEGSAPGTSESATPESGPGTSESATPESGPGTSESATPESGPGSEPATSGSETPGSEPATSGSETPGSPAGSPTSTEEGTSTEPSEGSAPGTSTEPSEGSAPGSEPATSGSETPGTSESATPESGPGTSTEPSEGSAPGHHHHHH | 0.031 | 32 | 24 | 12200
2 | AC1686 protease-untreated anti-EpCAM×anti-CD3 ProTIA (bispecific antibody) DIQMTQSPSSLSASVGDRVTITCRSTKSLLHSNGITYLYWYQQKPGKAPKLLIYQMSNLASGVPSRFSSSGSGTDFTLTISSLQPEDFATYYCAQNLEIPRTFGQGTKVEIKGATPPETGAETESPGETTGGSAESEPPGEGQVQLVQSGPGLVQPGGSVRISCAASGYTFTNYGMNWVKQAPGKGLEWMGWINTYTGESTYADSFKGRFTFSLDTSASAAYLQINSLRAEDTAVYYCARFAIKGDYWGQGTLLTVSSGGGGSDIQMTQSPSSLSASVGDRVTITCRASQDIRNYLNWYQQKPGKAPKLLIYYTSRLESGVPSRFSGSGSGTDYTLTISSLQPEDFATYYCQQGNTLPWTFGQGTKVEIKGATPPETGAETESPGETTGGSAESEPPGEGEVQLVESGGGLVQPGGSLRLSCAASGYSFTGYTMNWVRQAPGKGLEWVALINPYKGVSTYNQKFKDRFTISVDKSKNTAYLQMNSLRAEDTAVYYCARSGYYGDSDWYFDVWGQGTLVTVSSGTAEAASASGEPGRAANHEPSGLTEGPGSPAGSPTSTEEGTSESATPESGPGTSTEPSEGSAPGSPAGSPTSTEEGTSTEPSEGSAPGTSTEPSEGSAPGTSESATPESGPGSEPATSGSETPGSEPATSGSETPGSPAGSPTSTEEGTSESATPESGPGTSTEPSEGSAPGTSTEPSEGSAPGSPAGSPTSTEEGTSTEPSEGSAPGTSTEPSEGSAPGTSESATPESGPGTSTEPSEGSAPGTSESATPESGPGSEPATSGSETPGTSTEPSEGSAPGTSTEPSEGSAPGTSESATPESGPGTSESATPESGPGSPAGSPTSTEEGTSESATPESGPGSEPATSGSETPGTSESATPESGPGTSTEPSEGSAPGTSTEPSEGSAPGTSTEPSEGSAPGTSTEPSEGSAPGTSTEPSEGSAPGTSTEPSEGSAPGSPAGSPTSTEEGTSTEPSEGSAPGTSESATPESGPGSEPATSGSETPGTSESATPESGPGSEPATSGSETPGTSESATPESGPGTSTEPSEGSAPGTSESATPESGPGSPAGSPTSTEEGSPAGSPTSTEEGSPAGSPTSTEEGTSESATPESGPGTSTEPSEGSAPGTSESATPESGPGSEPATSGSETPGTSESATPESGPGSEPATSGSETPGTSESATPESGPGTSTEPSEGSAPGSPAGSPTSTEEGTSESATPESGPGSEPATSGSETPGTSESATPESGPGSPAGSPTSTEEGSPAGSPTSTEEGTSTEPSEGSAPGTSESATPESGPGTSESATPESGPGTSESATPESGPGSEPATSGSETPGSEPATSGSETPGSPAGSPTSTEEGTSTEPSEGSAPGTSTEPSEGSAPGSEPATSGSETPGTSESATPESGPGTSTEPSEGSAPGHHHHHH | 0.026 | 240 | 118 | 2680
3 | AC1685 protease-untreated anti-EpCAM×anti-CD3 ProTIA (bispecific antibody) DIQMTQSPSSLSASVGDRVTITCRSTKSLLHSNGITYLYWYQQKPGKAPKLLIYQMSNLASGVPSRFSSSGSGTDFTLTISSLQPEDFATYYCAQNLEIPRTFGQGTKVEIKGATPPETGAETESPGETTGGSAESEPPGEGQVQLVQSGPGLVQPGGSVRISCAASGYTFTNYGMNWVKQAPGKGLEWMGWINTYTGESTYADSFKGRFTFSLDTSASAAYLQINSLRAEDTAVYYCARFAIKGDYWGQGTLLTVSSGGGGSDIQMTQSPSSLSASVGDRVTITCRASQDIRNYLNWYQQKPGKAPKLLIYYTSRLESGVPSRFSGSGSGTDYTLTISSLQPEDFATYYCQQGNTLPWTFGQGTKVEIKGATPPETGAETESPGETTGGSAESEPPGEGEVQLVESGGGLVQPGGSLRLSCAASGYSFTGYTMNWVRQAPGKGLEWVALINPYKGVSTYNQKFKDRFTISVDKSKNTAYLQMNSLRAEDTAVYYCARSGYYGDSDWYFDVWGQGTLVTVSSGTAEAASASGESGRAANTAPEGLTGPPGSPAGSPTSTEEGTSESATPESGPGTSTEPSEGSAPGSPAGSPTSTEEGTSTEPSEGSAPGTSTEPSEGSAPGTSESATPESGPGSEPATSGSETPGSEPATSGSETPGSPAGSPTSTEEGTSESATPESGPGTSTEPSEGSAPGTSTEPSEGSAPGSPAGSPTSTEEGTSTEPSEGSAPGTSTEPSEGSAPGTSESATPESGPGTSTEPSEGSAPGTSESATPESGPGSEPATSGSETPGTSTEPSEGSAPGTSTEPSEGSAPGTSESATPESGPGTSESATPESGPGSPAGSPTSTEEGTSESATPESGPGSEPATSGSETPGTSESATPESGPGTSTEPSEGSAPGTSTEPSEGSAPGTSTEPSEGSAPGTSTEPSEGSAPGTSTEPSEGSAPGTSTEPSEGSAPGSPAGSPTSTEEGTSTEPSEGSAPGTSESATPESGPGSEPATSGSETPGTSESATPESGPGSEPATSGSETPGTSESATPESGPGTSTEPSEGSAPGTSESATPESGPGSPAGSPTSTEEGSPAGSPTSTEEGSPAGSPTSTEEGTSESATPESGPGTSTEPSEGSAPGTSESATPESGPGSEPATSGSETPGTSESATPESGPGSEPATSGSETPGTSESATPESGPGTSTEPSEGSAPGSPAGSPTSTEEGTSESATPESGPGSEPATSGSETPGTSESATPESGPGSPAGSPTSTEEGSPAGSPTSTEEGTSTEPSEGSAPGTSESATPESGPGTSESATPESGPGTSESATPESGPGSEPATSGSETPGSEPATSGSETPGSPAGSPTSTEEGTSTEPSEGSAPGTSTEPSEGSAPGSEPATSGSETPGTSESATPESGPGTSTEPSEGSAPGHHHHHH | 0.029 | 27 | 29 | 4340
